Here are results for 19 sequences from the DeepSol protein solubility set.

This data set in a line: soluble on expression in E. coli; label from the status in PepcDB or PDB records.
For “MEQHPIKINKVQIRNLQIEDYAQLSQSFTRVYSDGSDVFWTHAQIKKLISIFPEGQIVTVVDDKIVGCALSIILDYDKVKNDHTYAQVTGKETFNTHNPEGNILYGIEVFIHPGYRGLRLARRMYEYRKELCETLNLKAIMFGGRIPNYHKYADKMRPKEYIARVRQREIYDPVLTFQLSNDFHVRKVMTNYLPNDEESKHYACLLQWDNIYYQPPTQEYINPKTTVRVGLVQWQMRSYKTLDDLFEQVEFFVDAVSDYKSDFVLFPEYFNAPLMSKFNDKGESQAIRGLAKYTDEIRDRFINLAISYNINIITGSMPYVKEDGLLYNVGFLCRRDGTYEMYEKMHVTPDEIKSWGLSGGKLLQTFDTDCAKVGVLICYDVEFPELSRLMADQGMQILFVPFLTDTQNAYSRVRVCAQARAIENECFVVIAGCVGNLPRVHNMDIQYAQSGVFTPCDFAFPTDGKRAEATPNTEMILVSDVDLDLLNALHTYGSVRNLKDRRNDVYEVRFKK”, the “soluble on expression in E. coli” value is listed as “not soluble”.
Regarding “MSADYSSEKFKATHLFDEILWHFRSNLSLKTNRRGLATAENSFSGKEAVDFLMIEMPRIIPNNVPERDKMQKFLEFMMDMNVISEAFPKKVKQRRPFSESRIYLFMKTLDELKHPKPRSRRSASFSGARKSAKVAQPASPAATMHRPPKARLPRRLSRSNGNIDKAGIDNSSGGVENHGFDDHKDDEIPKKQRTPKILNRSLESICTEEYTEKREVSEMKEKVYDWLPFFKSRRNHTKVNQPTRRSASLDRNHCVLEQEKAEAALRSQKVTTPPIREAPKDVVFMHPQGPLPAVPSRYQNHRTSIAGSNPALLSRGRMYESIMRRSSVVPVADSVQANNECSFWKTELLGRLEQIYDRTLPCEWASKVDGYDIQWNMIEIDHADGIVKSRCQGLQPDYPQTVIQFMDYLVRYPFVTHKKMDTGLEYNVNRIFITLVNRLEDLNAPLQFDECSLIVNLLCKIDSFAAMLDNGPARRWSKVMISSSASSIEEAGLMVDGFSRDLPACGIRASKYRRRALSPFDNRVNLEIQDEKSYEIREQWLIEAIQLVLLSLPTSRRRKLHKFVTFIQSIETNAVFDLADPSNGSSNNREAAIIGLWTGVCSKCRKQQGMLITAVLLANFQSLFAVPVEFIEQVKRLECEEKDRYSGPRYAKITRSRNDWQPPVPDKPQASPAVFKKPLREVACEKTKKGLFTRLLRK”, the “soluble on expression in E. coli” value is listed as “not soluble”.
With “MPKNDLLLRSLRGEPIGRFPVWLMRQAGRYMPEYRKIRNRVKNFLELCKNVDLATEISLLPLKILGVDAIIIFSDILVPLEPLGVKVEFVEGEGPKLSWSGKVSDLKKYDPSQNAYVYEIIKRVKEAQDEVPVIGFAGAPFTLLSYLIEGGASKDFKSTKLFMWENPKEYKRLMDILTETVLAYLKEQIKAGADVVQIFDSWVNNLSLEDYGEYVYPYVNYLISELKDFSDTPVIYFFRGSSSFIDLAVDYRADALSVDWSVDIPELFKIYDKGFQGNLEPAVLYASEEVIEEKTLGLLRRIPVKTRYVFNLGHGLAPDMELEKVKYLVDLVKSFPLT”, the “soluble on expression in E. coli” value is recorded as “soluble”.
As to “MGSDKIHHHHHHACTDGINETVISAYQLPVLPEPSYKFSRNGESSVNVLECGFLKSPIDRIFSEYMNEARMSTKRDYDEALRIYHEGNFGLKPQKEVSASSKHLKDRDKILKDIDAWFETSARIAGLGANIPSYEHRNREAVKGLTGYVGNGIGDKDICYVDERGIAVAEVYKYAIMGAIYLDKILNIHLSEQILENNEVLVRNDLTQLLPGHNYTELEHHWDLAYGYYDFWKTLAQSDGLPALKDCHLRISRSFVKGRALMTTSQYDEMRLQADTIRQELSRVVAVRAMHLLVGPNTLANLKENPRRAFRLLSQAYGLIYAAQFARNMEGKSFLTNEETGILLHELEKGDGLWDKERLLGREQTEGALYNLAVRIGEKFDVSPEDIKK”, the “soluble on expression in E. coli” value is “not soluble”.
As for “MSLVTVDQKPNLIRHLHDLSGVWQTDITYIQLTNHRWVYLATVLDPEKRKVLGYKIGDTMTAELATSALQMALDKHRKPLIIHSDMGSQYTSAEFNIKCQNYGLKHSYSLKGHPYDNGRMEAFHSILKREEVYLKAYQTLTEVQAAIGWYINFYNRNRISNVAEGHHHHHH”, the “soluble on expression in E. coli” value was “not soluble”.
In the case of “MSATSATNFAVQTHPVKAPDEEYFFEGAEKLLELWFCSSTQNETRSLRIIPREEIDAMLDIARCKILHSKHNESIDSYVLSESSLFISDNRVILKTCGTTRLLAALPVIMQLAGAYAGLDQVQSVYYSRKNFLRPDLQPSLHKNFDAEVEYLDSFFVDGHAYCLGSLKQDRWYLYTFHREVEFPAHKQPDHTLEILMSDLDEEVLHKFTKDYAVDGNDCFMRAGIDKIIPAGADVHDELFDPCGYSMNAYMNDTDQYATIHVTPEKAFSFASFETNQDLVCLYSQTRKVLQCFRPNKILMTVFANDISEKGKDAQQQLWDRELPGYRRTNVQFVRLETETLVYAHFVRKASTGQDSSSSDEDDGERSD”, the “soluble on expression in E. coli” value is “not soluble”.
As to “LAGIAGVDRDPPGWPQHSHLLAGDPERFRHQLQRAETTNSIECFVAEWHHAGVAADMTRPWPTVVQGGAGQRRRRDVEPDRKTPVRWMSGQRLSEITWPTTDIEHSVGAAEVQRHRGAVPLGSGGDAAGKVEGGRTPQPFVQP”, the “soluble on expression in E. coli” value was “not soluble”.
In the case of “MSLRYIVALTGGIGSGKSTVANAFADLGINVIDADIIARQVVEPGAPALHAIADHFGANMIAADGTLQRRALRERIFANPEEKNWLNALLHPLIQQETQHQIQQATSPYVLWVVPLLVENSLYKKANRVLVVDVSPETQLKRTMQRDDVTREHVEQILAAQATREARLAVADDVIDNNGAPDAIASDVARLHAHYLQLASQFVSQEKPEGGSHHHHHH”, the “soluble on expression in E. coli” value is reported as “soluble”.
On to “MTEETKPIKIAVIRCDIVSEACPGVGCFKAFNERKSYFKEYDEKAQMIAFFTCGGCSGRRVYRLLKALKKHNPDVVHLSSCMLMEDSYPRCPNIDTIRKTIQDAGIKVVEGTHH”, for which the “soluble on expression in E. coli” value was “not soluble”.
The result for “MASTTQNTPTKDLAEISERFEKLRARSSNNMATFNTTSSYNRTYEKKVIEEGSPNVRVTTQTHTAIPGMPDLGNIHSSMLSNFPNLAISSPSVVGSQNGNLTSIRVTNTSFHAILDVSKYDADSLKVTVVDNNIIVEGSHGEKEDTYGTIESTFKRRFPLPKAVAPESVQSQLTADGHLTIDAKAPEPKQEGARPIQIKVINTSAEQQKQ” reads “not soluble”; that for “MSLANGVWSLQPLADMSAAEFRDWQVLLENRTGVVLNEQRRTFLQTSLTARMRELGIGDYHSYYRQVTDGPRGAVEWAILLDRLTVQETRFFRHPPSFELLERYLGERLGREGMPRPWALWSVGCSSGEEPYSMAMCAAQALRGWQRGDFFGVTGTDISLHALQRARAANYPARKLEQLPAEMVERYCERQADGSFSVKTILTGRVCCARLNVLDLAKAPWSGMDVIFCQNLLIYFRRWRRREILNRLAERLAPGGLLVIGVGEVVDWSHPELEPVADERVLAFTRKGEGHHHHHH”, “soluble”; that for “GSHMVGPTYSTAVLNCLKNLDLWCFDVFSLNQAADDHALRTIVFELLTRHNLISRFKIPTVFLMSFLDALETGYGKYKNPYHNQIHAADVTQTVHCFLLRTGMVHCLSEIELLAIIFAAAIHDYEHTGTTNSFHIQTKSECAIVYNDRSVLENHHISSVFRLMQDDEMNIFINLTKDEFVELRALVIEMVLATDMSCHFQQVKTMKTALQQLERIDKPKALSLLLHAADISHPTKQWLVHSRWTKALMEEFFRQGDKEAELGLPFSPLCDRTSTLVAQSQIGFIDFIVEPTFSVLTDVAEKSVQPLADEDSKSKNQPSFQWRQPSLDVEVGDPNPDVVSFRSTWVKRIQENKQKWKERAASGITN”, “soluble”.
The result for “MALEGLKTSCCRPNEPLTTNSMAIAQEKAQHQQRSSLRNMTRPMIGRSGPKEASMTTRTRRETIVFAHPFRLRGIDRELPAGAYDVITDEELIEGLSFPVFRRVATMITVPCAPPRQSAVEMLTIEPDALRDARQADSSTSRA” reads “not soluble”; that for “MLFPTTIAGSLPKPEWLAEPNKLWAPWKSTGAELLRAKRDATILALKLQEDSGIDIVTEGEQARQHFVHGFLEAVEGIDFAHKVEMGIRNDRYKAMVPQVVAPLRLKGRVHGFEGQIARAHSTHKIKFTLPGPMTIIDTIADRHYGDRVKMAFAFAELLNEEAKALQADGIDMIQFDEPAFNVYMSEAADWGVKALERAAQDLTCATAVHICYGYGIKANTDWKETLGAEWRQYEDIFPAIDASSIQQVAVECRNSKVPLELLSLLKGKIVQAGVIDVASDEVETAEDVCATIEAVMQHVPKSNIIATTNCGMAPMRREIAEAKLAALGAGAELARERFKLEHHHHHH”, “soluble”; that for “GEEGNSSELPLSAEDAKKLTELAENVLQGWDVQAEKIDVIQGNQMALVWKVHTDSGAVCLKRIHRPEKKALFSIFAQDYLAKKGMNVPGILPNKKGSLYSKHGSFLFVVYDWIEGRPFELTVKQDLEFIMKGLADFHTASVGYQPPNGVPIFTKLGRWPNHYTKRCKQMETWKLMAEAEKEDPFSQLYLQEIDGFIEDGLRIKDRLLQSTYVPWTEQLKKSPNLCHQDYGTGNTLLGENEQIWVIDLDTVSFDLPIRDLRKMIIPLLDTTGVWDDETFNVMLNAYESRAPLTEEQKQVMFIDMLFPYELYDVIREKYVRKSALPKEELESAFEYERIKANALRQLI”, “soluble”.
Regarding “MSLKKENSVEFKVSGRYALFSDPINRIGGEKFSYQVPTYQALKGILESVYWKPTLIWIIDEVRVMNLIKTQSQNIRPVNFSGTSKGTGTPLNTLSIYTYLTNVEYQVKAHFEWNYNRPNLEKDRNENKHYIVAKRMINRGGRRDVFLGTRECQAYVEPCKFGEGEGAYDHYGSLSFGLMFHGFDYPDETGEDKLTARLWSPVMNNGYIKFLRPDECTIKRELSSMKPKVFDENNFSGLEEFEEEGDIIELDSEGHHHHHH”, the “soluble on expression in E. coli” value is “soluble”.
As for “MDSQVEGKISPSQKESSSTSGLVSPSEDGPAHQKIHRDQLSVDQIKKIREERAQKRQVRRNSLISQGKDPDFPTPDLQFIERPFLPINHDNSKGLTPATIQVTQDSLDVKIMTYNTLAQTLIRRDFFPESGPALKWHKRSKVLVHELKKYRPDVVSLQEVDYNELNFWQENFHKLGFDVIFKRHEGKTHGLLVAWNNKKFQLDNDWMLDYDNILAGNVISARTRTKNIALIISLYFKGITDSSSRGIIVANTHLFWHPFGVFERLRQSYLVLQKIQEIKACSKYNGWHSLLMGDFNTEPEEPPYLAITKRPLILKGPIRAMVECSLAYRYSKKRNGEESDQDDEECDEKSRGEGHSDQPQNPKPESFTATKEEKALVNQLVALHNSLHVKGVSLYGIGYGKVHPENANGSHGEPGLSNWANTWCGLLDYIFYIEGDHNQDTRQKEPLNAFEGNNNVKIIGYLRMPCAQEMPKHSQPFEGEYASDHISLMCQIRLFFGGEKVHSLK”, the “soluble on expression in E. coli” value is given as “not soluble”.
As for “AIAYTFDTTDHKSPCCNFQWYIFRKQGESRIITCELFGVIVSLENRWDWLEFMIDDSLQLTAFRCPKRDKLGMETLLQLGDVAQVTGNWKLSNGAFLNATKIAIHNNPDVECKYWLQQIQKYKSKVCELEIPSDWIRRQQRAHNLKTDAVLSFSAQVSTAAATCWKLWKKHFNQGGKISLQRLWEVIQRENCPKMQELSSCRRNQIVQLLIHLGYLIPLSKEPETYVLLIDDILDKQVMQIFNQNIASKTLSLREVAYRLEEYFHVEEISLERVEESILRLAYKEKVEQV”, the “soluble on expression in E. coli” value is “soluble”.
“SLSMKLLIADDEDTIRNGIAKYIKLHTDRFSQIYLAENGQQALDIILQYQPDMMLLDVQMPLKTGLEVLQEAQKLSLVPKTIILSGYDDFEYARKALRYGAKDYLLKPCRSSEILEAINKLVQEQLGTKEDVECEEGTGIHYIVSSAIEYMEEYYHKNLTLIEVSNKVGITAGYLSTLFTQNMNCGFVEYLNKIRIKHACSYLEQNYFKTYEIAYKVGFKDEKYFSKVFKKETGITPYEYRRDHSIGKNIRTEG”: the “soluble on expression in E. coli” value is “soluble”.
